According to patent US20230330251A1, “METHODS FOR TREATING CANCERS WITH ANTIBODY DRUG CONJUGATES (ADC) THAT BIND TO 191P4D12 PROTEINS” (AGENSYS, INC., priority 2020, published 2023):

Test system: subjects with previously treated locally advanced or metastatic urothelial cancer
Test: EV-301: safety, adverse events (safety analysis set, NCI-CTCAE v4.03, MedDRA)
[1] = Grade Any, N = 296 EV, 291 chemotherapy
[2] = Grade ≥3, N = 296 EV, 291 chemotherapy
[3] = MedDRA v23.0, N = 296 EV, 291 chemotherapy
[4] = No baseline PN, n = 241 EV, 233 chemotherapy
[5] = PY = 132.3 EV, 96.1 chemotherapy
[6] = any event, N = 296 EV, 291 chemotherapy

Excerpt: The Safety Analysis Set (SAF) will be used for the safety analysis. All subjects who are randomized and received study drug will be included in the SAF. The frequency of AEs and the serious AEs will be summarized by MedDRA system organ class and preferred term. In addition, summary statistics will be provided for the following safety parameters: • Laboratory values • Vital sign measurements • ECOG PS
An AE is any untoward medical occurrence in a subject, temporally associated with the use of a medicinal product, whether or not considered related to the medicinal product. An AE can therefore be any unfavorable and unintended sign (including an abnormal laboratory finding), symptom, or disease (new or exacerbated) temporally associated with the use of a medicinal product.
AEs, including abnormal clinical laboratory values, will be graded using the NCI-CTCAE guidelines (Version 4.03).
The safety analysis set (SAF), which consists of all subjects who received any amount of study drug, will be used for safety analyses.
SAF was used to perform all safety analysis. All treated subjects were analyzed according to the treatment they received.
The number and percentage of AEs by severity were also summarized. All AEs were listed.
A study drug-related TEAE is defined as any TEAE with a causal relationship of YES by the investigator. AEs of interest as classified by customized MedDRA queries and/or standard MedDRA queries were also summarized.

## enfortumab vedotin
[1]
  TRAE of special interest: Infusion-related reactions, %: 8.8%
  TRAE of special interest: Infusion-related reactions, Local events, %: 1.0%
  TRAE of special interest: Infusion-related reactions, Systemic events, %: 7.8%
  TRAE of special interest: Ocular disorders, %: 18.6%
  TRAE of special interest: Peripheral neuropathy, %: 46.3%
  TRAE of special interest: Peripheral neuropathy, Motor events, %: 7.4%
  TRAE of special interest: Peripheral neuropathy, Sensory events, %: 43.9%
  TRAE of special interest: Rash, %: 43.9%
  TRAE of special interest: Severe cutaneous adverse reaction, %: 20.3%
  TRAE of special interest: Skin reactions, %: 47.0%
[2]
  TRAE: Alopecia, Number of patients: 0
  TRAE: Anemia, Number of patients: 8
  TRAE: Anemia, percent: (2.7) percent
  TRAE: Any adverse event, Number of patients: 152
  TRAE: Any adverse event, percent: (51.4) percent
  TRAE: Decreased appetite, Number of patients: 9
  TRAE: Decreased appetite, percent: (3.0) percent
  TRAE: Decreased neutrophil count, Number of patients: 18
  TRAE: Decreased neutrophil count, percent: (6.1) percent
  TRAE: Decreased white-cell count, Number of patients: 4
  TRAE: Decreased white-cell count, percent: (1.4) percent
  TRAE: Diarrhea, Number of patients: 10
  TRAE: Diarrhea, percent: (3.4) percent
  TRAE: Dysgeusia, Number of patients: 0
  TRAE: Fatigue, Number of patients: 19
  TRAE: Fatigue, percent: (6.4) percent
  TRAE: Febrile neutropenia, Number of patients: 2
  TRAE: Febrile neutropenia, percent: (0.7) percent
  TRAE: Maculopapular rash, Number of patients: 22
  TRAE: Maculopapular rash, percent: (7.4) percent
  TRAE: Nausea, Number of patients: 3
  TRAE: Nausea, percent: (1.0) percent
  TRAE: Neutropenia, Number of patients: 14
  TRAE: Neutropenia, percent: (4.7) percent
  TRAE: Peripheral sensory neuropathy, Number of patients: 9
  TRAE: Peripheral sensory neuropathy, percent: (3.0) percent
  TRAE: Pruritus, Number of patients: 4
  TRAE: Pruritus, percent: (1.4) percent
[3]
  TEAE with special safety interest: Any corneal disorders (SMQ), %: (1.0%)
  TEAE with special safety interest: Any hyperglycemia (SSQ/CMQ), %: (11.8%)
  TEAE with special safety interest: Any infusion related reactions (SSQ/CMQ), %: (9.1%)
  TEAE with special safety interest: Any peripheral neuropathy (SMQ), %: (50.3%)
  TEAE with special safety interest: Any rashes or severe cutaneous adverse reactions, %: (53.7%)
[4]
  Treatment-emergent Hyperglycemia, %: (5.8) %
  Treatment-emergent Peripheral motor neuropathy, %: (9.1) %
  Treatment-emergent Peripheral neuropathy, %: (50.6) %
  Treatment-emergent Peripheral sensory neuropathy, %: (48.5) %
PADCEV arm
  most frequent Grade 3 or greater adverse event(s): rash, hyperglycemia, decreased neutrophil count, fatigue, anemia and decreased appetite, share of patients: more than 5%
[5]
  Grade ≥3 severity TEAE, E (number of events): 617
  Grade ≥3 severity TEAE, E/PY: (4.7) E/PY
  Grade ≥3 severity TRAE, E (number of events): 320
  Grade ≥3 severity TRAE, E/PY: (2.4) E/PY
  Overall TEAE, E (number of events): 5051
  Overall TRAE, E (number of events): 3033
  Serious TEAE, E (number of events): 314
  Serious TRAE, E (number of events): 114
  TEAE Leading to death, E (number of events): 21
  TEAE Leading to death, E/PY: (0.2) E/PY
  TEAE Leading to death, excluding disease progression, E (number of events): 11
  TEAE Leading to death, excluding disease progression, E/PY: (0.1) E/PY
  TEAE Leading to dose interruption, E (number of events): 536
  TEAE Leading to dose interruption, E/PY: (4.1) E/PY
  TEAE Leading to dose reduction, E (number of events): 170
  TEAE Leading to dose reduction, E/PY: (1.3) E/PY
  TEAE Leading to treatment withdrawal, E (number of events): 66
  TEAE Leading to treatment withdrawal, E/PY: (0.5) E/PY
  TRAE Leading to death, E (number of events): 7
  TRAE Leading to death, E/PY: (0.1) E/PY
  TRAE Leading to death, excluding disease progression, E (number of events): 7
  TRAE Leading to death, excluding disease progression, E/PY: (0.1) E/PY
  TRAE Leading to dose interruption, E (number of events): 384
  TRAE Leading to dose interruption, E/PY: (2.9) E/PY
  TRAE Leading to dose reduction, E (number of events): 165
  TRAE Leading to dose reduction, E/PY: (1.2) E/PY
  TRAE Leading to treatment withdrawal, E (number of events): 51
  TRAE Leading to treatment withdrawal, E/PY: (0.4) E/PY
[6]
  TRAE Leading to dose interruption, %: (51.0) %
  TRAE Leading to dose reduction, %: (32.4) %
  TRAE Leading to dose withdrawal, %: (13.5) %
In vivo
  Adverse events, regardless of relationship to treatment, that resulted in death (excluding disease progression) during the treatment period: 11 patients
  Investigator-assessed treatment-related adverse events that resulted in death: 7 patients
  Investigator-assessed treatment-related adverse events that resulted in death, %: 2.4%
  Skin reactions and peripheral neuropathy among treatment-related adverse events of special interest: most frequent
  Treatment-related adverse events of grade 3 or higher, rate after adjustment for treatment exposure: 2.4 events per patient-year
  time to first onset of grade ≥2 peripheral neuropathy, median (range): 4.435 (0.36, 12.02) months
  treatment-related death: abnormal hepatic function: 1 patient
  treatment-related death: hyperglycemia: 1 patient
  treatment-related death: multiorgan dysfunction syndrome: 2 patients
  treatment-related death: pelvic abscess: 1 patient
  treatment-related death: pneumonia: 1 patient
  treatment-related death: septic shock: 1 patient
Patients with the event
  Time to Onset of TRAE of special interest: Blurred vision, Median (range): 2.448 months
  Time to Onset of TRAE of special interest: Corneal disorders, Median (range): 4.337 months
  Time to Onset of TRAE of special interest: Dry eye, Median (range): 1.906 months
  Time to Onset of TRAE of special interest: Hyperglycemia, Median (range): 0.559 months
  Time to Onset of TRAE of special interest: Infusion-related reactions, Median (range): 0.509 months
  Time to Onset of TRAE of special interest: Peripheral neuropathy, Median (range): 2.694 months
  Time to Onset of TRAE of special interest: Skin reactions, Median (range): 0.427 months
Safety population
  incidence of treatment-related adverse events: 93.9%
